Laboratory results taken from article PMC10453824.

System: T1, rVapB47 (rRv3407) (Mycobacterium bovis BCG Moreau), ORF:ad596061
T1 sequence: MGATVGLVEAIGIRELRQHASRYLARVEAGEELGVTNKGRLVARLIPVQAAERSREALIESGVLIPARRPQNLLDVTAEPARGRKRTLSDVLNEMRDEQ
Test: EMSA

With “TCGACGTGTACGGGCAGGCTAGCCGGGTGATCAGCGGGGCGCCGATGGAGATCGCTGGCTGATCAACCAGTAAGCGCAACGCAATTATGTAGCACCATGCGTGCTACCGTTGGGCTTGTGGA (double strand) [07promF-R2 (122 bp)]” the binding was “binds”.

For “GGTGCTACATAATTGCGTTGCGCTTACTGGTTGATCAGCCAGCGATCTCCATCGGCGCCCCGCTGATCACCCGGCTAGCCTGCCCGTACACGTCGA (double strand) [07promF-R1 (96 bp)]”, the binding was “no binding”.
